For the assay, the target named is Mycobacterium tuberculosis type-I fatty acid synthase (FAS-I) (Mycobacterium tuberculosis). Kind of assay: […] (100 mM potassium phosphate pH 7.2, 150 mM KCl, 1 mM TCEP, 1 mM EDTA) […].

In general, stoichiometry N refers to the number of molecules, sites or subunits per partner or assembly. In turn, “Mycobacterium tuberculosis type-I fatty acid synthase (FAS-I) (enzyme)” gave a stoichiometry N of 6.
